The test addresses TgPKS2 thioester reductase domain (TgTR) (Toxoplasma gondii). Kind of test: ITC. In general terms: ITC needs no label: the signal is the heat of the interaction.

The source of these data is article doi:10.1101/2023.05.23.541938.

The substance holo-TgACP4 (domain or fragment) yielded a dissociation constant (Kd) of 5.75 µM.

A word on the Kd: it is the equilibrium constant for the complex coming apart. Low values mean higher affinity, high ones lower affinity.
